Test results from PMC9410885, “Structural assembly of the nucleic-acid-binding Thp3–Csn12–Sem1 complex functioning in mRNA splicing” (Nucleic Acids Research, 2022).

B3: Csn12, full length, untagged (natural protein, S. cerevisiae, UniProt P47130 1-423, looked up)
chain: MDVDIGCYFEEKRYDDKLLDFIRYDVKTPKKTKYILQRPTATDEESVRLQRFYQLGVDLKLKYSKRRSLKKQGRIKNATEELLRLANEQLKLFNRIVERETNWIIYPLWVMAKQLIRLANESSELNKDSIEECGRTIHRSFTICLNDRNPRLNENKKIGCYMFANLEFSIYHRLSNKDMIKNLVKVLESRVNARDIPPLNKSLAMEHKSQVVLYNYYLGQYYGCLENDHERGFFHLNEALLQCPMLYVESTGKFVLQGQMEKIMILLVPLALLTKRLYPHWDHPVIAGVITRSKRLSQVYPTLVRSVISGNLSLYEATAASHERFFLSQGLHVVITLLREVVFTRLVQRCWQWGNDRKSIMPLKILLATKQHDSSANEDEEEQLDALECRLASAIASGLLRAYLSHSNRCIVFSKKEPFPHSK
notes: Csn12, S. cerevisiae, full length, residues 1-423; untagged Csn12 from pET-22b (with His8-GST-Thp3) or from the first MCS of pETDuet-1 (with Sem1 and His8-GST-Thp3); 7EWF is the selenomethionine form; source: E. coli Rosetta (DE3), co-expressed; in cleared lysate (pull-down) and purified in the ternary complex (Ni-NTA, gel filtration, cation exchange)

Key:
Thp3;Csn12;Sem1 = molecular target: T1, Thp3;Csn12;Sem1 (Saccharomyces cerevisiae;Saccharomyces …, UniProt Q12049;P47130;O94742 1-470;1-423;1-89, ||); assay: fluorescence polarization; FP: 20 mM Tris-HCl pH 8.0, 150 mM NaCl, 2 mM MgCl2, 25 C; 50 nM 5'-FAM probe, protein 0-25.6 uM, 30 min; settings: protein: recombinant;recombinant;recombinant, tags: 8xHis-GST N-terminal, removed by TEV;none;none, copies: 1;1;1, label: 5' FAM
T1 sequence 1: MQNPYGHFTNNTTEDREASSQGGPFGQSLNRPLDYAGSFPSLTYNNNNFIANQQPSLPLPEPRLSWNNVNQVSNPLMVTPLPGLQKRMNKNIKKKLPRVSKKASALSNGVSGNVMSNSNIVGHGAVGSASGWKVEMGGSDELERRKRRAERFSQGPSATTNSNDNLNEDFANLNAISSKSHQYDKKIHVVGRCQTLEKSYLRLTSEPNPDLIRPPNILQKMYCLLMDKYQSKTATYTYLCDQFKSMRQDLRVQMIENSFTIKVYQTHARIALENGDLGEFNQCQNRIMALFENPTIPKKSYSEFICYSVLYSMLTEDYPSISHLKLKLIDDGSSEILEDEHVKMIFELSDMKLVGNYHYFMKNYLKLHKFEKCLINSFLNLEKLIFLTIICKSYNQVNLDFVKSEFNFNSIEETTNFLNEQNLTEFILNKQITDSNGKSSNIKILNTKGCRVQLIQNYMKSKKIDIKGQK
T1 sequence 2: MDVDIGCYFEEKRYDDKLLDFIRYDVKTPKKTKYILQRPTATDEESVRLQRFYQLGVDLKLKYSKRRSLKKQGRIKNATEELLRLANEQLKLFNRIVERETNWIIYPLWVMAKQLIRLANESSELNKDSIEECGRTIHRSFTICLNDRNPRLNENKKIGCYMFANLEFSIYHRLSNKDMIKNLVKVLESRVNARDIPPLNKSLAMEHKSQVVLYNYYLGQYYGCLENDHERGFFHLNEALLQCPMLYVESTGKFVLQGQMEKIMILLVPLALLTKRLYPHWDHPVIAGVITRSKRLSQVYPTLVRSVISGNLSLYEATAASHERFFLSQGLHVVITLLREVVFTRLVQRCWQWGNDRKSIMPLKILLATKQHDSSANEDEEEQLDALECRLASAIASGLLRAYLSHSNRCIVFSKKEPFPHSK
T1 sequence 3: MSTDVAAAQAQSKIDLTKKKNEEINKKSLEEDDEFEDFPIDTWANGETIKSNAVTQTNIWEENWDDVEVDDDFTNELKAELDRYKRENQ

[1] = molecular target: T2, Csn12 (binary complex);Sem1 (Saccharomyces cerevisiae;Saccharomyces …, UniProt P47130;O94742 1-423;1-89, |); assay: as above; settings: protein: recombinant;recombinant; tags: 6xHis;none; copies: 1;1; label: 5' FAM
T2 sequence 1: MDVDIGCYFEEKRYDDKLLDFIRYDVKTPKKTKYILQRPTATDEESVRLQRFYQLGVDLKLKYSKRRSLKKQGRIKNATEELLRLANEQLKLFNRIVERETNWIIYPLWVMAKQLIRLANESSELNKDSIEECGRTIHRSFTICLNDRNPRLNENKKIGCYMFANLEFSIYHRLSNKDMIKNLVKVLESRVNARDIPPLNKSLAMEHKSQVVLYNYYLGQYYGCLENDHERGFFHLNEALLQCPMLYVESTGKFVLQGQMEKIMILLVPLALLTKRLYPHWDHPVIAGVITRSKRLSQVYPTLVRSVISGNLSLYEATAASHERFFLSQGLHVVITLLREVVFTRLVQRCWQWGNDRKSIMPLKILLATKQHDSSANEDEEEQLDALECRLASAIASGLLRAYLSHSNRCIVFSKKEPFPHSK
T2 sequence 2: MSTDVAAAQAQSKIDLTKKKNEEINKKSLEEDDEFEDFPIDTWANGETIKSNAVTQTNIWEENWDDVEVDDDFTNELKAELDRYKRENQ

[2] = molecular target: T3, Thp3;Csn12 K415E/K416E;Sem1 (Saccharomyces cerevisiae;Saccharomyces …, UniProt Q12049;P47130;O94742 1-470;1-423;1-89, |K415E;K416E|); assay: as above; settings: protein: recombinant;recombinant;recombinant; tags: 8xHis-GST N-terminal, removed by TEV;none;none; copies: 1;1;1; label: 5' FAM
T3 sequence 1: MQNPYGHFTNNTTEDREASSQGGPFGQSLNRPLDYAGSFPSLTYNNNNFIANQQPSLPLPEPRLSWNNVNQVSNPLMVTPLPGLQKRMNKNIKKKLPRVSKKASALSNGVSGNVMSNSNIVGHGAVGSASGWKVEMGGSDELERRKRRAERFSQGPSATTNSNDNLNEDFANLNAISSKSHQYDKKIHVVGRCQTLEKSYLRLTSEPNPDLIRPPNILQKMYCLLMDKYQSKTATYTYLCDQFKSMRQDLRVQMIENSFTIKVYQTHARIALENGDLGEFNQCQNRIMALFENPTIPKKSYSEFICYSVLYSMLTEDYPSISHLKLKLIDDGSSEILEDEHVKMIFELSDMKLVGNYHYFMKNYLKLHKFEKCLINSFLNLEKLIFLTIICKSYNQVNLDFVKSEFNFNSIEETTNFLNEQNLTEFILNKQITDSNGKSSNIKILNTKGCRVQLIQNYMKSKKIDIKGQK
T3 sequence 2: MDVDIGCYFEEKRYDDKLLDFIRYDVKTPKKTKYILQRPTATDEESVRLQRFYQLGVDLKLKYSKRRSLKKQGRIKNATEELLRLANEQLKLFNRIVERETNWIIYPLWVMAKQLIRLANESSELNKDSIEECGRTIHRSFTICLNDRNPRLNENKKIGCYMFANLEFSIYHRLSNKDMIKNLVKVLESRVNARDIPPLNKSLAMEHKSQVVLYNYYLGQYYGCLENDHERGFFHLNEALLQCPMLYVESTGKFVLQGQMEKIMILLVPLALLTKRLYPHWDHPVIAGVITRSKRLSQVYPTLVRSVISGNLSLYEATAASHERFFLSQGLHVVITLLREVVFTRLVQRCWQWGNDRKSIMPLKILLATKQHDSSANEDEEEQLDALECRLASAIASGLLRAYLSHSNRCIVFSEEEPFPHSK
T3 sequence 3: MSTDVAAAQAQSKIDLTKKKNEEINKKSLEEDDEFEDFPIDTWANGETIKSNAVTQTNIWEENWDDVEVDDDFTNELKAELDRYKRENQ

Thp3;Csn12 R401E;Sem1 = molecular target: T4, Thp3;Csn12 R401E;Sem1 (Saccharomyces cerevisiae;Saccharomyces …, UniProt Q12049;P47130;O94742 1-470;1-423;1-89, |R401E|); assay: as above; settings: protein: recombinant;recombinant;recombinant; tags: 8xHis-GST N-terminal, removed by TEV;none;none; copies: 1;1;1; label: 5' FAM
T4 sequence 1: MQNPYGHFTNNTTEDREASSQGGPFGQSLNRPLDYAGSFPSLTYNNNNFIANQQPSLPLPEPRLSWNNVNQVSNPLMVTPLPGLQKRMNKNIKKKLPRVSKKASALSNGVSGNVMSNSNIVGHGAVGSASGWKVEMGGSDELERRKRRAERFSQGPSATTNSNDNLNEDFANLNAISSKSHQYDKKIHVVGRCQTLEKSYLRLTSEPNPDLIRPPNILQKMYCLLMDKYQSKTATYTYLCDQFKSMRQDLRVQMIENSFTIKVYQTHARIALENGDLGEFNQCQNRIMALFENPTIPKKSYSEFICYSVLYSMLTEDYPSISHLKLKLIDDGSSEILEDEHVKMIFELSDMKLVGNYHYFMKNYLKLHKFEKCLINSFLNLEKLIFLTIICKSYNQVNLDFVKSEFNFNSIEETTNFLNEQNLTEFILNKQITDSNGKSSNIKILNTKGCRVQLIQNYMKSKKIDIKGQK
T4 sequence 2: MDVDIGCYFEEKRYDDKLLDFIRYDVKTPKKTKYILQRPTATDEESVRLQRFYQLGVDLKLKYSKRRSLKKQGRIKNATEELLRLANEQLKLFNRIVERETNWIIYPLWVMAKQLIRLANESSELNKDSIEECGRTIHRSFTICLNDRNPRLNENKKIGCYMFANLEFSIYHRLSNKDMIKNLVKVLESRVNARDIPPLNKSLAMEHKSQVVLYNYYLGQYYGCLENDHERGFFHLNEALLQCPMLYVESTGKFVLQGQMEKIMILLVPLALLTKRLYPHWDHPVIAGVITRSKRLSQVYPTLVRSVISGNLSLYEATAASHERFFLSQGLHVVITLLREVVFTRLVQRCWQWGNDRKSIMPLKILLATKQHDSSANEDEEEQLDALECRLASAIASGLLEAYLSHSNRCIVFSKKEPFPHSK
T4 sequence 3: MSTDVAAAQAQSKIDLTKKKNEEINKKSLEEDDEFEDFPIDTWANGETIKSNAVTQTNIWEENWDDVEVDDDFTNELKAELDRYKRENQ

[3] = molecular target: B3; assay: crystal structure + SEC; single copy of the ternary complex in the asymmetric unit; ratio said to be consistent with the gel filtration result; settings: both partners purified
[4] = molecular target: T5, Thp3 (186–470), truncated Thp3 (S. cerevisiae, UniProt Q12049 186-470); assay: as above; settings: both partners purified
T5 construct: Thp3 (Ypr045c), S. cerevisiae, residues 186-470 (HD and WH domains); 8×His-GST tag removed with TEV protease; also called truncated Thp3 (residues 186–470); not shown: His8, N-terminal, cleaved; GST, N-terminal, cleaved
T5 sequence (looked up): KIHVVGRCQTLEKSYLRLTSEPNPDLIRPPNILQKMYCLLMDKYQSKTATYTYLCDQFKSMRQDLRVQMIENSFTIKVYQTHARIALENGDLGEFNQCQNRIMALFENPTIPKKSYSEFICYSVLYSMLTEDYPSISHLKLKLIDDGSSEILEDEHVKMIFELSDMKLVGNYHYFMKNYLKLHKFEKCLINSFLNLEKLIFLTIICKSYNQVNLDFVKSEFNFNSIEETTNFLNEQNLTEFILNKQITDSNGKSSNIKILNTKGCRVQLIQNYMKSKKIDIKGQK

Binder: AUAUAUAUAUAUAUAUAUAUAUAUA (ssRNA) [AU-repeat ssRNA 25]
- Kd (Thp3;Csn12;Sem1): 1.6 µM

Binder: TTTTATTTTATTTTTATTTTATTTT (ssDNA) [T-rich ssDNA 25]
- Kd (Thp3;Csn12;Sem1): 2.9 µM
- Kd [1]: 33.8 µM

Binder: TTTTATTTTATTTTTATTTT (ssDNA) [T-rich ssDNA 20]
- Kd (Thp3;Csn12;Sem1): 3.7 µM
- binding result [2]: no binding
- binding result (Thp3;Csn12 R401E;Sem1): no binding

B1: Sem1, full length, untagged (natural protein, S. cerevisiae, UniProt O94742 1-89, looked up)
chain: MSTDVAAAQAQSKIDLTKKKNEEINKKSLEEDDEFEDFPIDTWANGETIKSNAVTQTNIWEENWDDVEVDDDFTNELKAELDRYKRENQ
notes: Sem1, S. cerevisiae, full length, residues 1-89; second MCS of pETDuet-1; source: E. coli Rosetta (DE3), co-expressed; in cleared lysate (pull-down) and purified in the ternary complex (Ni-NTA, gel filtration, cation exchange)
- stoichiometry N [3]: 1

Binder: AUAUAUAUAUAUAUAUAUAU (ssRNA) [AU-repeat ssRNA 20]
- Kd (Thp3;Csn12;Sem1): 4.5 µM

B2: T-rich dsDNA 20 (dsDNA)
DNA 1: TTTTATTTTATTTTTATTTT
DNA 2: AAAATAAAAATAAAATAAAA
- Kd (Thp3;Csn12;Sem1; blunt): 1.1 µM

Binder: B3
- stoichiometry N [4]: 1
